Source: the Immune Epitope Database (IEDB)
pIC50: −log10 of the molar value.

Key:
Experiment in all cases: IEDB peptide-MHC binding, purified MHC/competitive/radioactivity; ≥ and ≤ were set here for values at or beyond the usual limits of such assays
HLA-A*02:01 = target: HLA-A*02:01
HLA-A*02:02 = target: HLA-A*02:02
HLA-A*02:03 = target: HLA-A*02:03
HLA-A*02:06 = target: HLA-A*02:06
HLA-A*68:02 = target: HLA-A*68:02
[1] = source organism: Vaccinia virus WR
[2] = source organism: Influenza A virus
[3] = source organism: Hepacivirus hominis
[4] = source organism: Mammarenavirus brazilense

Row | Sequence | pIC50 (HLA-A*02:01; [1]) | pIC50 (HLA-A*02:02; [1]) | pIC50 (HLA-A*02:03; [1]) | pIC50 (HLA-A*02:06; [1]) | pIC50 (HLA-A*68:02; [1]) | other results
1 | ETLPELNLSL | 5.96 | 7.28 | 6.89 | 6.87 | 6.19 | –
2 | RLPSETFPNV | 9.96 | 6.76 | 7.85 | 9.24 | 7.04 | –
3 | ALAEHISDSI | 8.06 | 9.70 | 9.47 | 6.79 | 6.57 | –
4 | SCINRCFYV | – | – | – | – | – | pIC50 (HLA-A*02:01; [2]): 6.53; pIC50 (HLA-A*02:02; [2]): 6.09; pIC50 (HLA-A*02:03; [2]): 6.02; pIC50 (HLA-A*02:06; [2]): 6.65; pIC50 (HLA-A*68:02; [2]): 5.97
5 | ILFILFFAYV | 6.86 | 6.88 | 6.44 | 5.92 | 6.49 | –
6 | LLIAITAFT | – | – | – | – | – | pIC50 (HLA-A*02:01; [3]): 6.76; pIC50 (HLA-A*02:02; [3]): 7.43; pIC50 (HLA-A*02:03; [3]): 7.92; pIC50 (HLA-A*02:06; [3]): 6.34; pIC50 (HLA-A*68:02; [3]): 5.98
7 | NVDIIDLLL | 6.07 | 6.34 | 5.39 | 7.66 | 6.58 | –
8 | LMIFISSFL | 9.49 | 9.19 | 9.89 | 7.74 | 7.46 | –
9 | QLMYDIINSV | 9.11 | 8.72 | 9.85 | 8.25 | 6.78 | –
10 | AAITLVVISV | 6.43 | 6.30 | 6.61 | 7.57 | 6.15 | –
11 | DLLNVTYNI | 6.10 | 6.53 | 6.71 | 5.89 | 6.67 | –
12 | LLPDALLFTL | – | – | – | – | – | pIC50 (HLA-A*02:01; [4]): 7.11; pIC50 (HLA-A*02:02; [4]): 8.33; pIC50 (HLA-A*02:03; [4]): 6.13; pIC50 (HLA-A*02:06; [4]): 7.10; pIC50 (HLA-A*68:02; [4]): 6.63
13 | FLAFVVFLL | – | – | – | – | – | pIC50 (HLA-A*02:01; source organism: SARS-CoV1): 9.62; pIC50 (HLA-A*02:02; source organism: SARS-CoV1): 9.39; pIC50 (HLA-A*02:03; source organism: SARS-CoV1): 7.06; pIC50 (HLA-A*02:06; source organism: SARS-CoV1): 8.59; pIC50 (HLA-A*68:02; source organism: SARS-CoV1): 6.41
14 | YIMRVMANNV | 7.31 | 7.64 | 8.70 | 7.85 | 7.38 | –
15 | QIFNIISYI | 7.82 | 6.95 | 7.82 | 8.74 | 8.19 | –
16 | GIFVDTMSI | 5.52 | 5.54 | 6.03 | 5.79 | 5.40 | –
17 | KIEDLINQLV | 6.54 | 7.06 | 7.15 | 6.84 | 5.98 | –
18 | YASLTTIGT | 6.06 | 6.39 | 6.84 | 6.79 | 7.28 | –
19 | FLNRFTTTL | – | – | – | – | – | pIC50 (HLA-A*02:02; source organism: SARS-CoV1): 9.18; pIC50 (HLA-A*02:03; source organism: SARS-CoV1): 9.00; pIC50 (HLA-A*02:06; source organism: SARS-CoV1): 7.24; pIC50 (HLA-A*68:02; source organism: SARS-CoV1): 6.54
20 | FTYASALWEI | – | – | – | – | – | pIC50 (HLA-A*02:02; source organism: SARS-CoV1): 8.80; pIC50 (HLA-A*02:03; source organism: SARS-CoV1): 8.22; pIC50 (HLA-A*02:06; source organism: SARS-CoV1): 8.60; pIC50 (HLA-A*68:02; source organism: SARS-CoV1): 8.77

Row | Sequence | pIC50 (HLA-A*02:01; [1]) | pIC50 (HLA-A*02:02; [1]) | pIC50 (HLA-A*02:03; [1]) | pIC50 (HLA-A*02:06; [1]) | pIC50 (HLA-A*68:02; [1]) | other results
21 | YLNTPGLPV | – | – | – | – | – | pIC50 (HLA-A*02:02; [3]): 8.03; pIC50 (HLA-A*02:03; [3]): 7.92; pIC50 (HLA-A*02:06; [3]): 6.07; pIC50 (HLA-A*68:02; [3]): 6.71
22 | TLNEDLLEI | – | – | – | – | – | pIC50 (HLA-A*02:02; source organism: SARS-CoV1): 8.85; pIC50 (HLA-A*02:03; source organism: SARS-CoV1): 8.66; pIC50 (HLA-A*02:06; source organism: SARS-CoV1): 7.25; pIC50 (HLA-A*68:02; source organism: SARS-CoV1): 5.84
23 | FNMLSTVLGV | – | – | – | – | – | pIC50 (HLA-A*02:02; [2]): 7.80; pIC50 (HLA-A*02:03; [2]): 7.96; pIC50 (HLA-A*02:06; [2]): 7.51; pIC50 (HLA-A*68:02; [2]): 6.07
24 | SMHFYGWSL | 6.72 | – | – | 6.42 | 7.96 | –
25 | FLLVTLAIL | – | – | – | – | – | pIC50 (HLA-A*02:02; source organism: SARS-CoV1): 9.19; pIC50 (HLA-A*02:03; source organism: SARS-CoV1): 9.01; pIC50 (HLA-A*02:06; source organism: SARS-CoV1): 9.32; pIC50 (HLA-A*68:02; source organism: SARS-CoV1): 5.72
26 | KTIAVSVYGA | – | 6.44 | 6.65 | 6.37 | 6.63 | –
27 | RIEDMFLTSV | – | 6.26 | 7.15 | 6.77 | 5.84 | –
28 | FLTSLLILV | – | – | – | – | – | pIC50 (HLA-A*02:02; source organism: SARS-CoV1): 8.66; pIC50 (HLA-A*02:03; source organism: SARS-CoV1): 7.92; pIC50 (HLA-A*02:06; source organism: SARS-CoV1): 8.48; pIC50 (HLA-A*68:02; source organism: SARS-CoV1): 6.59
29 | YTRPEIDVL | – | 6.94 | 7.13 | 6.81 | 6.28 | –
30 | FLITGVFDI | – | – | – | – | – | pIC50 (HLA-A*02:02; source organism: SARS-CoV1): 9.16; pIC50 (HLA-A*02:03; source organism: SARS-CoV1): 9.12; pIC50 (HLA-A*02:06; source organism: SARS-CoV1): 8.82; pIC50 (HLA-A*68:02; source organism: SARS-CoV1): 7.21
31 | QMWKCLIRL | – | – | – | – | – | pIC50 (HLA-A*02:02; [3]): 6.76; pIC50 (HLA-A*02:03; [3]): 6.50; pIC50 (HLA-A*02:06; [3]): 6.66; pIC50 (HLA-A*68:02; [3]): 5.49
32 | KLRSSPPIPM | – | 7.24 | 6.87 | 5.66 | 5.37 | –
33 | VLAWLYAAV | – | – | – | – | – | pIC50 (HLA-A*02:02; source organism: SARS-CoV1): 10.01; pIC50 (HLA-A*02:03; source organism: SARS-CoV1): 9.51; pIC50 (HLA-A*02:06; source organism: SARS-CoV1): 8.06; pIC50 (HLA-A*68:02; source organism: SARS-CoV1): 7.43
34 | SLFIESSICL | – | 7.00 | 6.53 | 6.01 | 5.67 | –
35 | IIGHIGHHYI | – | 6.40 | 6.73 | 5.87 | 6.65 | –
36 | SMWALVISV | – | – | – | – | – | pIC50 (HLA-A*02:02; source organism: SARS-CoV1): 8.21; pIC50 (HLA-A*02:03; source organism: SARS-CoV1): 8.36; pIC50 (HLA-A*02:06; source organism: SARS-CoV1): 9.10; pIC50 (HLA-A*68:02; source organism: SARS-CoV1): 6.60
37 | TLLCVLAAL | – | – | – | – | – | pIC50 (HLA-A*02:02; source organism: SARS-CoV1): 8.09; pIC50 (HLA-A*02:03; source organism: SARS-CoV1): 7.96; pIC50 (HLA-A*02:06; source organism: SARS-CoV1): 8.10; pIC50 (HLA-A*68:02; source organism: SARS-CoV1): 6.37
38 | FISGIQYLA | – | – | – | – | – | pIC50 (HLA-A*02:02; [3]): 8.07; pIC50 (HLA-A*02:03; [3]): 6.08; pIC50 (HLA-A*02:06; [3]): 5.87; pIC50 (HLA-A*68:02; [3]): 7.92
39 | MLLRSAIGQV | – | – | – | – | – | pIC50 (HLA-A*02:02; [2]): 5.86; pIC50 (HLA-A*02:03; [2]): 8.15; pIC50 (HLA-A*02:06; [2]): 6.62; pIC50 (HLA-A*68:02; [2]): 5.77
